Assay [1] concerns the target T1, Human NRP-1 His (human, UniProt O14786 22-856).
T1 construct: Recombinant monomeric protein; Biotinylated in the MSD-SET assay; also called hNRP-1; not shown: His tag
As to the kind of experiment: MSD-SET solution equilibrium titration, Fab.
Target sequence in this assay (O14786 22-856 V179A limits assumed): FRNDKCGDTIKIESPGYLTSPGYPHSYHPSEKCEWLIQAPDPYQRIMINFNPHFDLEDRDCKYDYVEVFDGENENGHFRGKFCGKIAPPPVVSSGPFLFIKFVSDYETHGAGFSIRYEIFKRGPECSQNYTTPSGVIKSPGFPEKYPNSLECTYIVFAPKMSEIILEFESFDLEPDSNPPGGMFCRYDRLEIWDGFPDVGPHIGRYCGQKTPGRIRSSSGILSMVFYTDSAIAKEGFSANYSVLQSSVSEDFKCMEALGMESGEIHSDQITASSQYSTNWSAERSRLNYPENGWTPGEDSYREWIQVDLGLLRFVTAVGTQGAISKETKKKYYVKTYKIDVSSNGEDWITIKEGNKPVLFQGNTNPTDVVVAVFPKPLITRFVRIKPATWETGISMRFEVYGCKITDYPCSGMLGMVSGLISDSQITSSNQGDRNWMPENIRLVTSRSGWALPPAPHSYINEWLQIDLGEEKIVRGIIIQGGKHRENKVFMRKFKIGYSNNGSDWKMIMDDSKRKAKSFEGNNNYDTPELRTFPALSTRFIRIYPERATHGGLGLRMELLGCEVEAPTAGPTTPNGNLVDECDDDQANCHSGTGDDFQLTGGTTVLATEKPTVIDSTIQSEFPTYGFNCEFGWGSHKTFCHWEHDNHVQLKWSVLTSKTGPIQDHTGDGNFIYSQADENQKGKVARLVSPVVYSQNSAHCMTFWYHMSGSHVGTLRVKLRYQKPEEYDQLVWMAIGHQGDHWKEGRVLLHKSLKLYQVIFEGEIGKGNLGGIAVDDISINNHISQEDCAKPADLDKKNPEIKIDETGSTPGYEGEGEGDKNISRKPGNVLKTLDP

The next assay has as its target T2, recombinant human NRP-1 (human, UniProt O14786 22-856, limits assumed).
T2 construct: also called biotinylated human NRP-1
As to the kind of experiment: blocking ELISA: SEMA3A coated, biotinylated human NRP-1 preincubated with IgG1 antibody; competitor SEMA3A. In general terms: In an ELISA, binding on a coated surface is turned into a signal by an enzyme label.

Assay [2] deals with T1, Human NRP-1 His. Briefly: BLI ForteBio, IgG1 N297A on AHQ sensor, 100 nM monomeric antigen, 1:1 fit. On the technique in general: In BLI a coated tip is dipped into the sample, and binding shifts an interference pattern.
Another assay addresses T3, Cyno NRP-1 His (cynomolgus monkey, UniProt O14786 22-856 (human entry), limits assumed).
T3 construct: Recombinant monomeric protein; also called cynomolgus monkey NRP-1-His; cNRP-1; not shown: His tag
T3 chain: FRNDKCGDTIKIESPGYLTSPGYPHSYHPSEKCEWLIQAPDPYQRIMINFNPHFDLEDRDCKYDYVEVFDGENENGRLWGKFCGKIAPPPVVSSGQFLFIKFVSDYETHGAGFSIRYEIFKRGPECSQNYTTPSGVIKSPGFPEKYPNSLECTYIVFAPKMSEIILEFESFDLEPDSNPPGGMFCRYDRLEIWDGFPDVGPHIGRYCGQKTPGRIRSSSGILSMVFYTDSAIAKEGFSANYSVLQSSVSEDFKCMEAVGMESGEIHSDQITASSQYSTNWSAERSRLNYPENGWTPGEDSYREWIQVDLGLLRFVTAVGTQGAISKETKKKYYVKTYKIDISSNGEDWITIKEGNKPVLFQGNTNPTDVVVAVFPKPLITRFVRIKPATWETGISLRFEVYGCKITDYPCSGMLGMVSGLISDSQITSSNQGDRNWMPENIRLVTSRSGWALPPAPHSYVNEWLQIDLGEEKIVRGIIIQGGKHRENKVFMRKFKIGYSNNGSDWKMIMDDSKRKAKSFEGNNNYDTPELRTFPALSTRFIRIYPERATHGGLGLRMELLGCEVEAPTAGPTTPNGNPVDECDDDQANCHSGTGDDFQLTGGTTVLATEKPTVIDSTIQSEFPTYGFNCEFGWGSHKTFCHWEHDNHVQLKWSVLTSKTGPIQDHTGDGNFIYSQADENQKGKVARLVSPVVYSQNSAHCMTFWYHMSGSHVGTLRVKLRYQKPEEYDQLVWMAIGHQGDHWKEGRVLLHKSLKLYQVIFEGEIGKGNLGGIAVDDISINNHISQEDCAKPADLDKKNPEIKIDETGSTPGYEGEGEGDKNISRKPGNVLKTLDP
Described as above.

Another assay has as its target T4, Mouse NRP-1 His (mouse, UniProt P97333 22-856).
T4 construct: Recombinant monomeric protein; also called mNRP-1; not shown: His tag
The assay is described as above.

T2 sequence (O14786 22-856 V179A limits assumed): as the sequence (O14786 22-856 V179A limits assumed) above

B1: MAB8 Fab (Fab, V domains shown)
VH: EVQLLESGGGLVQPGGSLRLSCAASGFTFASYAMVWVRQAPGKGLEWVSIISGSGGSTYYADSVKGRFTISRDNSKNTLYLQMNSLRAEDTAVYYCAKDPGYDSSRYYYSNYGMDVWGQGTTVTVSS
VL: DIQMTQSPSSLSASVGDRVTITCRASQSISSYLNWYQQKPGKAPKLLIYGASSLQSGVPSRFSGSGSGTDFTLTISSLQPEDFATYYCQQTYSLYTFGGGTKVEIK
For the molecule B1, the Kd (as a rule, the free concentration of one partner at which half of the binding sites on the other are occupied at equilibrium, for simple one-to-one binding) in the assay with Human NRP-1 His [1] is 0.096 nM.

B2: MAB11 Fab (Fab, V domains shown)
VH: EVQLLESGGGLVQPGGSLRLSCAASGFTFSSVAMVWVRQAPGKGLEWVSAISGSGGATYYADSVEGRFTISRDNSKNTLYLQMSSLRAEDTAVYYCAKDPGYDSSRYYYSNYGMDVWGQGTTVTVSS
VL: DIQMTQSPSSLSASVGDRVTITCRASQSISSYLNWYQQKPGKAPKLLIYGASSLQSGVPSRFSGSGSGTDFTLTISSLQPEDFATYYCQQTYSLYTFGGGTKVEIK
B2: the Kd with Human NRP-1 His [1] worked out at 0.021 nM. This Kd is about 4.6-fold lower than that of the molecule before.

B3: MAB12 Fab (Fab, V domains shown)
VH: EVQLLESGGGLVQPGGSLRLSCAASGFTFSSVAMVWVRQAPGKGLEWVSAISGSGGATYYADSVEGRFTISRDNSKNTLYLQMNSLRAEDTAVYYCAKDPGYDSSRYYYSNYGMDVWGQGTTVTVSS
VL: DIQMTQSPSSLSASVGDRVTITCRASQSISSYLNWYQQKPGKAPKLLIYGASSLQSGVPSRFSGSGSGTDFTLTISSLQPEDFATYYCQQTYSLYTFGGGTKVEIK
B3 registered a Kd with Human NRP-1 His [1] of 0.026 nM.

B4: MAB9 Fab (Fab, V domains shown)
VH: EVQLLESGGGLVQPGGSLRLSCAASGFTFKSYAMVWVRQAPGKGLEWVSIISGSGGATYYADSVKGRFTISRDNSKNTLYLQMNSLRAEDTAVYYCAKDPGYDSSRYYYSNYGMDVWGQGTTVTVSS
VL: DIQMTQSPSSLSASVGDRVTITCRASQSISSYLNWYQQKPGKAPKLLIYGASSLQSGVPSRFSGSGSGTDFTLTISSLQPEDFATYYCQQTYSLYTFGGGTKVEIK
Turning to B4, the Kd with Human NRP-1 His [1] was 0.019 nM. This Kd and that of the molecule before are within 1.5-fold of each other.

B5: MAB1 (antibody, V domains shown)
VH: QVQLVQSGAGVKKPGASVKVSCKASGYTFRSYYMLWVRQAPGQGLEWMGIIDPSDGSTSYAQKFQGRVTMTRDTPTSTVYMELSSLRSEDTAVYYCARGARRITGYGMDVWGQGTTVTVSS
VL: DIQMTQSPSSVSASVGDRVTITCRASQGISSWLAWYQQKPGKAPKLLIYAASNLQSGVPSRFSGSGSGTDFTLTISSLQPEDFATYYCQQASVFPFTFGGGTKVEIK
On to B5, for which, in the assay with recombinant human NRP-1, the IC50 (commonly the midpoint of a concentration-inhibition curve) is 2.9 nM. Also, the Kd came out at 1.87 nM with Human NRP-1 His [2], 2.16 nM with Cyno NRP-1 His and 2.12 nM in the assay with Mouse NRP-1 His.

B6: MAB13 (antibody, V domains shown)
VH: QVQLQQWGAGLLKPSETLSLTCAVYGGSFRGYYWEWIRQPPGKGLEWIGEISHSGSTNYNPSLKSRVTISVDTSKNQFSLKLSSVTAADTAVYYCARARPYREPYGMDVWGQGTTVTVSS
VL: DIQLTQSPSSVSASVGDRVTITCRASQDISSWLAWYQQKPGKAPKLLIYAASSLQSGVPSRFSGSGSGTDFTLTISSLQPEDFATYYCQQELAFPRTFGGGTKVEIK
Regarding B6, in the assay with recombinant human NRP-1, the concentration for half-maximal inhibition (IC50) worked out at 3.4 nM. Also, the dissociation constant Kd in the assay with Human NRP-1 His [2] amounted to 1.41 nM; with Cyno NRP-1 His it was 1.58 nM; with Mouse NRP-1 His, 7.42 nM.

B7: MAB3 (antibody, V domains shown)
VH: QAQLVQSGAEVKKPGASVKVSCKASGYTFSRYYMHWVRQAPGQGLEWMGIINPLGGSTLYAQKFQGRVTMTRDTSTSTVYMELSSLRSEDTAVYYCARDLGYYGSGMHAWGQGTLVTVSS
VL: DIQMTQSPSSVSASVGDRVTITCRASQGISRWLAWYQQKPGKAPKLLIYAASSLQSGVPSRFSGSGSGTDFTLTISSLQPEDFATYYCQQANLLPFTFGGGTKVEIK
In the case of B7, the IC50 with recombinant human NRP-1 was 0.6 nM. Further, the results for the Kd in the assay with Human NRP-1 His [2], in the assay with Cyno NRP-1 His and with Mouse NRP-1 His were 1.08 nM, 1.19 nM and 0.99 nM, respectively.

B8: MAB4 (antibody, V domains shown)
VH: QVQLVQSGAEVKKPGASVKVSCKASGYTFSRYYMHWVRQAPGQGLEWMGIINPLGGSTLYAQKFQGRVTMTRDTSTSTVYMELSSLRSEDTAVYYCARDLGYYGSGMHVWGQGTLVTVSS
VL: DIQMTQSPSSVSASVGDRVTITCRASQGISRWLAWYQQKPGKAPKLLIYAASSLQSGVPSRFSGSGSGTDFTLTISSLQPEDFATYYCQQANLLPFTFGGGTKVEIK
B8: the 50% inhibitory concentration (IC50) with recombinant human NRP-1 was 3.9 nM. Also, the values for the Kd with Human NRP-1 His [2], in the assay with Cyno NRP-1 His and in the assay with Mouse NRP-1 His were 0.851 nM, 0.925 nM and 0.746 nM, respectively.

B9: MAB2 (antibody, V domains shown)
VH: QVQLVQSGAEVKKPGASVKVSCKASGYTFRSYYMLWVRQAPGQGLEWMGIIDPSDGSTSYAQKFQGRVTMTRDASTSTVYMELSSLRSEDTAVYYCARGARRITGYGMDVWGQGTTVIVSS
VL: DIQMTQSPSSVSASVGDRVTITCRASQGISSWLAWYQQKPGKAPKLLIYAASNLQSGVPSRFSGSGSGTDFTLTISSLQPEDFATYYCQQASVFPFTFGGGTKVEIK
B9: the IC50 with recombinant human NRP-1 worked out at 3.1 nM. Moreover, the Kd with Human NRP-1 His [2] came out at 1.86 nM; with Cyno NRP-1 His, 2.43 nM; with Mouse NRP-1 His, 1.94 nM.

B10: MAB4 Fab (Fab, V domains shown)
VH: QVQLVQSGAEVKKPGASVKVSCKASGYTFSRYYMHWVRQAPGQGLEWMGIINPLGGSTLYAQKFQGRVTMTRDTSTSTVYMELSSLRSEDTAVYYCARDLGYYGSGMHVWGQGTLVTVSS
VL: DIQMTQSPSSVSASVGDRVTITCRASQGISRWLAWYQQKPGKAPKLLIYAASSLQSGVPSRFSGSGSGTDFTLTISSLQPEDFATYYCQQANLLPFTFGGGTKVEIK
Consider B10, for which the Kd with Human NRP-1 His [1] stood at 0.046 nM.

B11: MAB14 (antibody, V domains shown)
VH: QVQLQQWGAGLLKPSETLSLTCAVYGGSFRGYYWEWSRQPPGKGLEWIGEISHSGSTNYNPSLKSRVTISVDTSKNQFSLKLSPVTAADTAVYYCARARPYREPYGMDVWGQGTTVTVSS
VL: DIQLTQSPSSVSASVGDRVTITCRASQDISSWLAWYQQKPGKAPKLLIYAASSLQSGVPSRFSGSGSGTDFTLTISSLQPEDFATYYCQQELAFPRTFGGGTKVEIK
As to B11, the IC50 with recombinant human NRP-1 came out at 3.1 nM. Besides, the results for the Kd with Human NRP-1 His [2], with Cyno NRP-1 His and with Mouse NRP-1 His were 1.12 nM, 1.1 nM and 5 nM, respectively.

B12: MAB2 Fab (Fab, V domains shown)
VH: QVQLVQSGAEVKKPGASVKVSCKASGYTFRSYYMLWVRQAPGQGLEWMGIIDPSDGSTSYAQKFQGRVTMTRDASTSTVYMELSSLRSEDTAVYYCARGARRITGYGMDVWGQGTTVIVSS
VL: DIQMTQSPSSVSASVGDRVTITCRASQGISSWLAWYQQKPGKAPKLLIYAASNLQSGVPSRFSGSGSGTDFTLTISSLQPEDFATYYCQQASVFPFTFGGGTKVEIK
With B12, the Kd with Human NRP-1 His [1] amounted to 0.23 nM.

B13: MAB5 (antibody, V domains shown)
VH: QVQLVQSGAEVKKPGASVKVSCKASGYTFTSYYMHWVRQAPGQGLEWMGIINPQGGDTSYAQKFQGRVTMTRDTSTSTVYMELSSLRSEDTAVYYCARDRGMYYASGFGPWGQGTLVTVSS
VL: EIVMTQSPGTLSLSPGERATLSCRASQSVSSSYLAWYQQKPGQAPRLLIYGASNRATGIPDRFSGSGSGTDFTLTISRLEPEDFAVYYCQQLSSFPITFGGGTKVEIK
Take B13: in the assay with recombinant human NRP-1, the IC50 amounted to 5.9 nM. Besides, the dissociation constant (Kd) worked out at 3.23 nM with Human NRP-1 His [2], 4.09 nM with Cyno NRP-1 His and 5.06 nM with Mouse NRP-1 His.

B14: MAB15 (antibody, V domains shown)
VH: QVQLQQWGAGLLKPSETLSLTCAVYGGSFVKYYWSWIRQPPGKGLEWIGDIWHSGMTNYNPSLKSRVTISVDTSKNQFSLKLSSVTAADTAVYYCARGPGYDSSGYSRRFDPWGQGTLVTVSS
VL: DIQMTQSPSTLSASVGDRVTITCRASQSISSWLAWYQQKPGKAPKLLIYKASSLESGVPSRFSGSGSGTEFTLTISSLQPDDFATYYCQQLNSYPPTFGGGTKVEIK
Consider B14, for which the Kd in the assay with Human NRP-1 His [2] was 0.851 nM; in the assay with Cyno NRP-1 His it was 9.2 nM; with Mouse NRP-1 His, 54.1 nM.

The record behind these values is patent US20190119389A1 (POTENZA THERAPEUTICS, published 2019).
